These results are taken from patent US7713943B2, “Further use of protein kinase N beta” (Silence Therapeutics Aktiengesellschaft (AG), priority 2002, dated 2010).

“Also recorded” adds a separate entry of the source.

Experiment [1] relates to MPB (myelin basic protein). Put plainly: In vitro kinase activity of protein kinase N beta derivatives, MPB/MBP phosphorylation. Type of experiment: biochemical. More on the design: key to Activity: +: active; −: inactive; !: no “hyper activation” was observed as one might have expected from comparable mutations in other kinases (Morgan and Debond, 1994). To be noted: for phosphorylation of MBP, 32P incorporation: immune precipitates, gamma 32P-ATP, autoradiography, FIG. 11B. On the procedure:
The respective fragments were transiently epressed in HeLa cells. Their relative expression was determined by Western-blot analysis of Hela cell extracts using an anti-PKNbeta antibody.
MPB is myelin basic protein which is a standard in vitro phosphorylation substrate.
As may be taken from FIG. 9A apart from the full-length protein kinase N beta only the kinase domain in its otherwise wildtype form is active in phosphorylating MPB.
The PKNbeta-derived molecules were immune-precipitated from the cell extracts shown in FIG. 10 by using anti-tag antibodies. The immune precipitates were washed as described (Klippel et al., 1996) and divided in two halfs. One half was incubated with 5 μg MBP (UBI) as a phosphorylation substrate, 4 mM MgCl2 and gamma ^32P-ATP in a buffered solution for 10 min at room temperature. In addition, phosphatase inhibitors and inhibitors against unspecifically acting kinases were added as in Klippel et al., 1998. Incorporation of radioactive phosphate was detected by autoradiography after separating the reaction products by 16% SDS-PAGE (FIG. 11B).

The subject of experiment [2] is GST-GSK3 fusion protein. Put plainly: Non-radioactive in vitro kinase assay, anti-phospho GSK3alpha Western blot. To be noted: immune precipitates, 200 μM rATP, FIG. 11A. The class given is biochemical. The method, then:
The second half of the immune precipitates was incubated with 1 μg GST-GSK3 fusion protein (Cell Signaling Technology) as a phosphorylation substrate in the presence of 200 μM rATP. The reaction mixture was subsequently analyzed by 8-16% gradient SDS-PAGE and Western blotting using the anti-phospho GSK3alpha antibody (Cell Signaling Technology) (FIG. 11A).
The specificity of the in vitro phosphorylation reactions was controlled by analyzing kinase defective variants (e.g. containing mutations in the ATP binding site, see above) in parallel to active protein.
In a first step, the suitability of a non-radioactive screening formate was determined, whereby the various protein kinase N beta derivatives as already discussed in connection with example 10, were used for phosphorylating a suitable substrate. Such substrate may, for example, be MBP or a GSK3 peptide which is typically immobilised on a suitable carrier such as agarose- or sepharose beads or on plastic surfaces. In the present case and as depicted in FIG. 11A, the substrate is a GSK3-derived peptide fused to paramyosin. […] The phosphorylated substrate in the present case was detected by anti-phospho GSK3 alpha antibody (mentioned above).

B1: ΔN comprising amino acids 288-889: protein kinase N beta derivative comprising amino acids 288-889 (protein, UniProt Q6P5Z2 288-889, looked up, fragment)
chain: CEQLLTAVPGRSPAAALASSPSEGWLRTKAKHQRGRGELASEVLAVLKVDNRVVGQTGWGQVAEQSWDQTFVIPLERARELEIGVHWRDWRQLCGVAFLRLEDFLDNACHQLSLSLVPQGLLFAQVTFCDPVIERRPRLQRQERIFSKRRGQDFLRASQMNLGMAAWGRLVMNLLPPCSSPSTISPPKGCPRTPTTLREASDPATPSNFLPKKTPLGEEMTPPPKPPRLYLPQEPTSEETPRTKRPHMEPRTRRGPSPPASPTRKPPRLQDFRCLAVLGRGHFGKVLLVQFKGTGKYYAIKALKKQEVLSRDEIESLYCEKRILEAVGCTGHPFLLSLLACFQTSSHACFVTEFVPGGDLMMQIHEDVFPEPQARFYVACVVLGLQFLHEKKIIYRDLKLDNLLLDAQGFLKIADFGLCKEGIGFGDRTSTFCGTPEFLAPEVLTQEAYTRAVDWWGLGVLLYEMLVGECPFPGDTEEEVFDCIVNMDAPYPGFLSVQGLEFIQKLLQKCPEKRLGAGEQDAEEIKVQPFFRTTNWQALLARTIQPPFVPTLCGPADLRYFEGEFTGLPPALTPPAPHSLLTARQQAAFRDFDFVSERFLEP
Consider B1, for which the Activity result in experiment [1] (transient overexpression in HeLa cells, MPB substrate, FIG. 9) is recorded as “−*”.

B2: Full length wt: full length wildtype PKNbeta molecule (889 amino acids) (protein)
chain: MEEGAPRQPGPSQWPPEDEKEVIRRAIQKELKIKEGVENLRRVATDRRHLGHVQQLLRSSNRRLEQLHGELRELHARILLPGPGPGPAEPVASGPRPWAEQLRARHLEALRRQLHVELKVKQGAENMTHTCASGTPKERKLLAAAQQMLRDSQLKVALLRMKISSLEASGSPEPGPELLAEELQHRLHVEAAVAEGAKNVVKLLSSRRTQDRKALAEAQAQLQESSQKLDLLRLALEQLLEQLPPAHPLRSRVTRELRAAVPGYPQPSGTPVKPTALTGTLQVRLLGCEQLLTAVPGRSPAAALASSPSEGWLRTKAKHQRGRGELASEVLAVLKVDNRVVGQTGWGQVAEQSWDQTFVIPLERARELEIGVHWRDWRQLCGVAFLRLEDFLDNACHQLSLSLVPQGLLFAQVTFCDPVIERRPRLQRQERIFSKRRGQDFLRRSQMNLGMAAWGRLVMNLLPPCSSPSTISPPKGCPRTPTTLREASDPATPSNFLPKKTPLGEEMTPPPKPPRLYLPQEPTSEETPRTKRPHMEPRTRRGPSPPASPTRKPPRLQDFRCLAVLGRGHFGKVLLVQFKGTGKYYAIKALKKQEVLSRDEIESLYCEKRILEAVGCTGHPFLLSLLVCFQTSSHARFVTEFVPGGDLMMQIHEDVFPEPQARFYVACVVLGLQFLHEKKIIYRDLKLDNLLLDAQGFLKIADFGLCKEGIGFGDRTSTFCGTPEFLAPEVLTQEAYTQAVDWWALGVLLYEMLVGECPFPGDTEEEVFDCIVNMDAPYPGFLSVQGLEFIQKLLQKCPEKRLGAGEQDAEEIKVQPFFRTTNWQALLARTIQPPFVPTLCGPADLRYFEGEFTGLPPALTPPAPHSLLTARQQAAFRDFDFVSERFLEP
For B2, the “phosphorylation of GSK3-derived substrate” value in experiment [2] (listed as full length wildtype protein kinase N beta) is listed as “suitable to phosphorylate the substrate; also recorded: show activity”. Besides, the “phosphorylation of MBP, 32P incorporation” value (from here on “phosphorylation of MBP”) in experiment [1] was “show activity”. The “phosphorylating MPB (FIG. 9A)” value in experiment [1] (transient overexpression in HeLa cells) is reported as “active”.

B3: full length TA: full length protein kinase N beta with TA mutation at amino acid 718 (protein)
chain: MEEGAPRQPGPSQWPPEDEKEVIRRAIQKELKIKEGVENLRRVATDRRHLGHVQQLLRSSNRRLEQLHGELRELHARILLPGPGPGPAEPVASGPRPWAEQLRARHLEALRRQLHVELKVKQGAENMTHTCASGTPKERKLLAAAQQMLRDSQLKVALLRMKISSLEASGSPEPGPELLAEELQHRLHVEAAVAEGAKNVVKLLSSRRTQDRKALAEAQAQLQESSQKLDLLRLALEQLLEQLPPAHPLRSRVTRELRAAVPGYPQPSGTPVKPTALTGTLQVRLLGCEQLLTAVPGRSPAAALASSPSEGWLRTKAKHQRGRGELASEVLAVLKVDNRVVGQTGWGQVAEQSWDQTFVIPLERARELEIGVHWRDWRQLCGVAFLRLEDFLDNACHQLSLSLVPQGLLFAQVTFCDPVIERRPRLQRQERIFSKRRGQDFLRRSQMNLGMAAWGRLVMNLLPPCSSPSTISPPKGCPRTPTTLREASDPATPSNFLPKKTPLGEEMTPPPKPPRLYLPQEPTSEETPRTKRPHMEPRTRRGPSPPASPTRKPPRLQDFRCLAVLGRGHFGKVLLVQFKGTGKYYAIKALKKQEVLSRDEIESLYCEKRILEAVGCTGHPFLLSLLVCFQTSSHARFVTEFVPGGDLMMQIHEDVFPEPQARFYVACVVLGLQFLHEKKIIYRDLKLDNLLLDAQGFLKIADFGLCKEGIGFGDRTSAFCGTPEFLAPEVLTQEAYTQAVDWWALGVLLYEMLVGECPFPGDTEEEVFDCIVNMDAPYPGFLSVQGLEFIQKLLQKCPEKRLGAGEQDAEEIKVQPFFRTTNWQALLARTIQPPFVPTLCGPADLRYFEGEFTGLPPALTPPAPHSLLTARQQAAFRDFDFVSERFLEP
Regarding B3, in experiment [2], the “phosphorylation of GSK3-derived substrate” value was “no”. The “phosphorylation of MBP” value in experiment [1] is on record as “background activity of unspecific kinases”.

B4: full length KE: full length protein kinase N beta with kinase defective KE mutation at position 588 (protein)
chain: MEEGAPRQPGPSQWPPEDEKEVIRRAIQKELKIKEGVENLRRVATDRRHLGHVQQLLRSSNRRLEQLHGELRELHARILLPGPGPGPAEPVASGPRPWAEQLRARHLEALRRQLHVELKVKQGAENMTHTCASGTPKERKLLAAAQQMLRDSQLKVALLRMKISSLEASGSPEPGPELLAEELQHRLHVEAAVAEGAKNVVKLLSSRRTQDRKALAEAQAQLQESSQKLDLLRLALEQLLEQLPPAHPLRSRVTRELRAAVPGYPQPSGTPVKPTALTGTLQVRLLGCEQLLTAVPGRSPAAALASSPSEGWLRTKAKHQRGRGELASEVLAVLKVDNRVVGQTGWGQVAEQSWDQTFVIPLERARELEIGVHWRDWRQLCGVAFLRLEDFLDNACHQLSLSLVPQGLLFAQVTFCDPVIERRPRLQRQERIFSKRRGQDFLRRSQMNLGMAAWGRLVMNLLPPCSSPSTISPPKGCPRTPTTLREASDPATPSNFLPKKTPLGEEMTPPPKPPRLYLPQEPTSEETPRTKRPHMEPRTRRGPSPPASPTRKPPRLQDFRCLAVLGRGHFGKVLLVQFKGTGKYYAIEALKKQEVLSRDEIESLYCEKRILEAVGCTGHPFLLSLLVCFQTSSHARFVTEFVPGGDLMMQIHEDVFPEPQARFYVACVVLGLQFLHEKKIIYRDLKLDNLLLDAQGFLKIADFGLCKEGIGFGDRTSTFCGTPEFLAPEVLTQEAYTQAVDWWALGVLLYEMLVGECPFPGDTEEEVFDCIVNMDAPYPGFLSVQGLEFIQKLLQKCPEKRLGAGEQDAEEIKVQPFFRTTNWQALLARTIQPPFVPTLCGPADLRYFEGEFTGLPPALTPPAPHSLLTARQQAAFRDFDFVSERFLEP
B4: the “phosphorylation of GSK3-derived substrate” value in experiment [2] is on record as “no”. The “phosphorylation of MBP” value in experiment [1] is “background activity of unspecific kinases”.
